Results on 1 molecule are retold here after patent EP3741773A1.

The target in this test is meditope-enabled trastuzumab Fab fragment. The test is described as follows: SPR.
Chain of meditope-enabled trastuzumab Fab fragment (chain, as listed by the source, chain 1 of 2): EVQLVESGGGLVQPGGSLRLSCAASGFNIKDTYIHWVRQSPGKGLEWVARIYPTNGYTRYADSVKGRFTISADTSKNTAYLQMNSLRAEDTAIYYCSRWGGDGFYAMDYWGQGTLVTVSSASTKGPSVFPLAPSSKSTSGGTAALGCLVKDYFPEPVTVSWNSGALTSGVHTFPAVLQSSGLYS
Chain of meditope-enabled trastuzumab Fab fragment (chain, as listed by the source, chain 2 of 2): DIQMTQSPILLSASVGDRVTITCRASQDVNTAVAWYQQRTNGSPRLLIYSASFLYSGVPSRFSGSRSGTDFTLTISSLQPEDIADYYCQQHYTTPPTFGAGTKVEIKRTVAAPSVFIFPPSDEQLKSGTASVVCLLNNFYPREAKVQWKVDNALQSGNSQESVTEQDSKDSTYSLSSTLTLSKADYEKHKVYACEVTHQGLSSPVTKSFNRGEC

B1: cQFD meditope (peptide)
peptide: CQFDLSTRRLKC
modifications: not checked
As to B1, the Kd (usually the concentration at which binding is half-saturated) came to 1000 nM.
